# Assay: soluble on expression in E. coli; label from the status in PepcDB or PDB records
row,Sequence,soluble on expression in E. coli
1,MSIQKNTSTTSSSTLLDLIVIGGGINGAGIAADAAGRGLSVGLYEANDFASATSSASSKLIHGGLRYLEHYEFRLVSEALAEREVILRKAPHVALPMRFRLPHRPFLRPAWMIRCGLFLYDNLGKRTTLPGSKTVNLAKSGLLKPEMKTGFEYSDCWVDDARLVLLNVMAARENHAEVRNYCRVEKAHRENGVWHVTIHDVTTDQRFERKAKALVNAAGPWVKQFFDEGLEQTSPRNIRLIKGSHIVVPRIHNEPQAYILQNKDNRIVFMIPYLDKFSIIGTTDVEYKGDPREVAISDDEVDYLIDIVNQHFVHQLTREDVVWTYSGVRPLCDDESDSPQAITRDYTLELDAEYDQAPLLSVFGGKLTTYRKLGEAAMKKLEPYLPQMGGNWTANQTLPGGNFSCTREQLAKQIHAKYSWAPQALILRYVTQFGTQTWDLMEGASSEADLGQAFSEQAGGVYQREIDYLMNHEMALTDEDILWRRTKLGLYMNDEEKQALADYLKEKLQQKVVNLSQVSLEHHHHHH,soluble
2,MSLKVVITRPKERADVFASLLKKEGFEPIIFPTLEIVYNKDLDVNLDSYDWIAFTSPSGVIGLYNILTENERENVKNKKIAVIGEKTAKTFKKYFGRDPDIMPNEYTAESLLREIKKVSKEEEKFLIPTTPSTRDVLKNNLNADLLFVYKSAEPENLKEDIKKLKELIAKDKFILTFTSGLTAKNFFKYVDDEFAEIIKDNYIVAIGPITAKVIEKFGFKPLIPKVYTIEGMLEVIRTLKEREGHHHHHH,soluble
3,MSAKDFLVELGTEELPPKALNSLGEAFLSGIEKGLKAAGLSYAAARFYAAPRRLAVLVEQLAVQQPDRTVNLDGPPLQAAFDASGNPTQAALGFAKKCGVDLQQIDKSGPKLRFIQTIAGQPAAGLLPGIVEASLNELPIPKRMRWAARREEFVRPTQWLVMLFGDDVVECEILAQKAGRESRGHRFHNPDNVRISSPAAYLEDLRGAHVLADFAERRELIAKRVAELAAEQQGSAIVPPSLLDEVTALVEWPVPLVCSFEERFLEVPQEALITTMQDNQKYFCLLDANGKLLPRFITVANVESKAPENIVSGNEKVVRPRLTDAEFFFKQDKKQPLESFNERLRNVVFQAQLGTVFEKAQRVSGLAAYIAERIGGNAQNASRAGILSKCDLATEMVGEFPEMQGIAGYYYATHGGEAEDVALALNEQYMPRGAGAELPSTLTGAAVAVADKLDTLVGIFGIGMLPTGSKDPYALRRAALGVLRILIEKQLDLDLVAAVNAAVEQYGDKVKAAGLAEQVLDFVFDRLRARYEDEGVDVAVYQSVRALKPSSPLDFDQRVQAVQAFRQLPEAEALAAANKRVSNILAKSEDEVPPNVDASLLVEAAEKALGSAVANAESEVAPLAAARDYRAALARLAALREPVDTFFADVMVNVDDAAVRANRYALLAKLRGSFLGVADIS,not soluble
4,MYCIGCGAKIQTEAKNALGFLPAGALKKKIAERDQMEAVQAGDEGSEASIKTEDLYCQRCFRLRHYNEIAPTSLTDADFLRLLKEIGQHDALIVNVVDIFDFNGSLIPNLHKLTGGNDLLMVANKRDVLPKSLKVGKLTAWLREQAASRSLKPKDILVTSAQNKDDVAELMEAIEYYRRGRDVYVVGVTNVGKSTLINAIIKSASGSEDVITTSRFPGTTLDKIEIPLDEDSALIDTPGIIHRGQIAHYLEPEDLKYVSPRKEIKPKTYQLDPEQTLFFGGLARFDFISGERQGMTAYFDNEINVHRTKLEGATEFYEKHKGELLAPALVGAKLVRREFKITDKSDIVFSGLGWVRVPQKAVVAAWVPEGVDVVVRKALIGLEHHHHHH,soluble
5,MDGELKNLKCNISQLAAITGLHRQTVVSRLSGVPLAPGSNEKNKLYLLTDVIRVLMEAPVSQAAEHQDPNKMTPKERKDWFDSEKGRLWLEKEMKQVVPLPEVRQQMAAIVKAITQVLEVWPDKLERDKGWSADQLNEAQDVVDEVRILLVKAIQETADDDGE,not soluble
6,MFALHRHFPNPLPSNPSISRHEQKVADHLASIIKESYYGDTSVEESEYLVQEEYGDWEPEVFEPYDCVLPDQDDVLFGEKAVSREELDKAITFYRSGKIGSRPITTMHHSYRWIRTDAHMNKLRKYEKDKKAFQENVRVRLAQLTQRLYEEVKEKLDNGVNLHDSDLMAMALEINTREMKLQNFKASQSWITRWKQSHRIVSRRVTKFVTRKCLINKDAIKKNADDFVKNARTEISNYHPSMVFNCDQTGIQKELYPARSLAFMGEKTVERLAQSKSSLTHSFTFLPMIFLDGSMGPKAFMVIAEPKGQFPPSRPIPNCPNLEVRAGYKTHIMTKQLMCDFFESCVFIPSVPKKLYIMLDSWPAFKDHTTIKNLVPNGHDVVIRNIPEHTTGMIQPLDVYWNAPWKSLIKKFTAYALRTQTDYVIAQRNNAICMVSVLYHQISAEHFRPFLQHCWKKAGYVGAANTSSTPFLTPAQYCIDHGDTVICYHTGCNHLGFIRCARCKIFPARTGKNFSHILIVENVSFPIQYFFLNIAPFILVIP,not soluble
7,MTPHVMKRDGCKVPFKSERIKEAILRAAKAAEVDDADYCATVAAVVSEQMQGRNQVDINEIQTAVENQLMSGPYKQLARAYIEYRHDRDIEREKRGRLNQEIRGLVEQTNASLLNENANKDSKVIPTQRDLLAGIVAKHYARQHLLPRDVVQAHERGDIHYHDLDYSPFFPMFNCMLIDLKGMLTQGFKMGNAEIEPPKSISTATAVTAQIIAQVASHIYGGTTINRIDEVLAPFVTASYNKHRKTAEEWNIPDAEGYANSRTIKECYDAFQSLEYEVNTLHTANGQTPFVTFGFGLGTSWESRLIQESILRNRIAGLGKNRKTAVFPKLVFAIRDGLNHKKGDPNYDIKQLALECASKRMYPDILNYDQVVKVTGSFKTPMGCRSFLGVWENENGEQIHDGRNNLGVISLNLPRIALEAKGDEATFWKLLDERLVLARKALMTRIARLEGVKARVAPILYMEGACGVRLNADDDISEIFKNGRASISLGYIGIHETINALFGGEHVYDNEQLRAKGIAIVERLRQAVDQWKEETGYGFSLYSTPSENLCDRFCRLDTAEFGVVPGVTDKGYYTNSFHLDVEKKVNPYDKIDFEAPYPPLANGGFICYGEYPNIQHNLKALEDVWDYSYQHVPYYGTNTPIDECYECGFTGEFECTSKGFTCPKCGNHDASRVSVTRRVCGYLGSPDARPFNAGKQEEVKRRVKHLGNGQIG,not soluble
8,MSLKICNFRAHYSPTMLSYVIIFMVEKMNYIKINLKLNNPLAFWANFSESERFFWFDPQKETFVIGCERLKAIDLEHDKFSDYTYLFHSQTFFDDIKGELWENFGGETIAFKHYFVVNKENSYTLTCDSPREIPEITIPKFKHQLTEKASDFSAWQELFYAIQKNFADGKSRKIVASRELEFTSQTSFELESIIQNLLDNNPNAFIFAYQKGKRIFLGASPEILVQKENDQLLSYALAGTFPKTMENAGQKLLTDPKNLLEHDIVVQKIKRNLLEKAETVTVGTTELMELKNVYHLRTILSAKNSELSLIDWTKQLHPTPALGGEPRHEALEFLRKHENHERGLYAAPLGLIDSKGNGTMIVGIRSALIVDKKLYAYAGCGIIPSSDALEEFRETKVKLKTILEALEGHHHHHH,not soluble
9,MGSDKIHHHHHHMTSADNILAHASAMRQFSQFAGVAGLDLRRACPPDVYAFVEQAQDAEWLPATAHVDVLQAAAIASGRADLGVAFAMWCNIRGFGPVSLLWDHCTTVDEASRITRRYMHLESAAMRSSTDTDGHEAALRHILMVPARFGGSQFLQATLALQLRIIRMLLGEEWTPIRLELDHPAPPSYRYHQAVFRCPIEFEADRCALVFRKSDLHRPSLRGNANMVQYLERQLAHADSHWPGDLVQQIRYFVAANLTERKANLAHVSGLAGLSSQSLQRRLAERGTTFATILEEVRKQTADEYFRTARRPNLTELSHRLGYTDASAASRFLRQHMSTGARALMAQVRPGRGRPGSARALAAEA,not soluble
10,DIKVTPGTSELVEQILALLSRYLSSYIHVLNKFISHLRRVATLRFERTTLIKFVKKLRFYNDSVLSYNASEFINEGKNELDPEADSFDKVILPIASMFVKSVETFDLLNYYLTQSLQKEILSKTLNEDLTLTAESILAIDDTYNHFVKFSQWMIESLRIGSNLLDLEVVQFAIKSADEDGTNIGETDNIFLQEILPVNSEEEFQTLSAAWHSILDGKLSALDEEFDVVATKWHD,soluble
11,MGSDKIHHHHHHVEMPGTTEPLGKMVKVEGKKDEHKGDFFLTTVQIARANLATMIYSHFNSFTSIYSEQEMTGGLNDAQFNRVNQFYMETAQNTAIYQAFKLANKPYELKYEGVYVLDIAKNSTFKNKLELADTITAVNGQQFTSSADMIAYVSKQKVGDSVTIEYTRIDGTKHKSTGKYIKIANGKTGIGISLVDHTEVVTTPKVTVNAGSIGGPSAGMMFTLEIYSQLTGKDLRNGREIAGTGTIEHDGSIGQIGGVDKKVATASKEGAKVFLVPDSGTKKESSNNYLGAKTAAKKLKTKMKIVPVKTIQDALDYLEK,not soluble
12,MGSDKIHHHHHHMNWLLNISTHGSDLEIAGPEWSEAVSLLRRTGMDGFELYPAGAYDCTAIPKEIVGGVHLRFFVMLRQIWQNDREGLLRMFGSEQTVRHYYSGVNREAVISCYRSQLELAARFNVPYVVFHPVHYELEYVFNWQPPWGWRETVDLSTEIINEVVRDTPYDGWILFENLWWPGNFRLDSTDEIDRLLSKVRWPKCGIVLDTAHILNKNQELRTEEEAIAFLLRQVERLGDYRQLIKAVHLSKSLSGEAAKAGFANADPFCGAHDFWQRFSIALRHVRDLDRHEPFSHSMLGELFDLIEPDNVVFELAFSSLDEWIGKIEQQQRALQRFFPECRIKENLY,not soluble
13,MCSSETIVKLNVGGSVFETWKSTLTKQDGFFKTLVETNIPVKKDTSDCYFIDRSPKYFETVLNYMRSGVTVLPDSEKELQELKKEAEFYLLEQLVDLCEPINNQIRTYRSSHELLQIIASTKKPVVVINYITHNNDIIYIPEGFRFDEFVKKNSSVVEIYFQPMDNREPLPKDLRRHRGMKYYPEPVWSYRIYNSTHSGCVDLTAMDDLQKKIDSILNGE,not soluble
14,MKRKKPTIHDVAAKAGVGLGTVSRVLNDHPAVRHETRARVLRAMEELGYAPNPHARRIAGGRSYTVSVLLPFVATEFYRRLVEGIEGVLLEQRYDLALFPILSLARLKRYLENTTLAYLTDGLILASYDLTERFEEGRLPTERPVVLVDAQNPRYDSVYLDNRLGGRLAGAYLARFPGPIFAIAVEEEPDRAFRRTVFAERMAGFQEALKEAGRPFSPDRLYITRHSQEGGRLALRHFLEKASPPLNVFAGADQV,soluble
15,MKNLIAELLFKLAQKEEESKELCAQVEALEIIVTAMLRNMAQNDQQRLIDQVEGALYEVKPDASIPDDDTELLRDYVKKLLKHPCQ,not soluble
16,MVPVRLPLFGPSRAEGPMGPLPLRRKALGILYYLALEGPTRRERLADLLWGHRVALQNLRSELTHLRSFFGKEAFRGPVLTLPPGVELDRTPGSGEAMEGLEDLSPAFADWVYGWRTRLAPGEEGTPFPKRLEAVRPPALVILIGPPGSGQESLAQALAQKLGLPLRHGLGEGAGVFYLSEPFPPKEVGLALKPLPGRVLVVARSSFGEDPSFLLALRTRFPAEVTVVEQVPCLSWREAVGGPLRHLPFAEAARFYLRSGGRVEVLRELLAMGNPEALPQRVRAMVALEARHLPWEARKALEVLALHPGPFPEKLAWILGYGEALDELEHRGWLLYCEGRYRFSEPQFRPYLTAGFGEGERCRLHARLAEAWEALGDPVAAAYHRFYGEKGEALKAAQLGSWRQALAAHPGPNVPLPRSRVRKGKKRALETEEIHLVSFQGEVAEAVLELEEPLLLHLQGEVYQELPLGLGANLEAFPFRLRSLKGEGAVYFLPRANPGYYPWGAVLPQENLDHEFLLRPGQYLLELGTPGVVSLRLQAWETAPGNQEILVPLEMTESL,soluble
17,MNIYQQLVKQKLKTITPEELVSYSREYGLPITTSQAKQILHLARTNDINVFDPEERKKWVRELAKITSPDIARKANELFLKFVQKK,not soluble

# Source: the DeepSol protein solubility set
